Test results taken from article PMC4605646 (PLoS ONE, 2015).

Target: human α-synuclein (human, UniProt P37840 1-140)
Experiment: cell-based or functional assay

lag phase of α-synuclein amyloid formation (ThT fluorescence, 70 μM α-synuclein, 37°C, agitation) at CsgE-to-α-synuclein molar ratios of 1-to-3, 1-to-10 and 1-to-100: 4 fold
B1: CsgE (natural protein)
chain: VEVEVPGLLTDHTVSSIGHDFYRAFSDKWESDYTGNLTINERPSARWGSWITITVNQDVIFQTFLFPLKRDFEKTVVFALIQTEEALNRRQINQALLSTGDLAHDEF
